Numbering of substitutions follows the chain as printed. Where two headings read alike, the source gives them in different places.
What was measured:
[1] = molecular target: T1, human CD3ε/δ-Fc fusion protein (soluble recombinant CD3ε/δ complex) (human, UniProt P04234 22-105); assay: SPR Biacore
T1 construct: also called huCD3ε/δ; huCD3; not shown: hinge, CH2, CH3 of human IgG with tag

[2] = molecular target: T2, human CD123 Strep-II tagged Fc-fusion protein (human); assay: SPR Biacore
T2 construct: also called human CD123-Fc; recombinant CD123
T2 sequence (chain, as listed by the source limits assumed): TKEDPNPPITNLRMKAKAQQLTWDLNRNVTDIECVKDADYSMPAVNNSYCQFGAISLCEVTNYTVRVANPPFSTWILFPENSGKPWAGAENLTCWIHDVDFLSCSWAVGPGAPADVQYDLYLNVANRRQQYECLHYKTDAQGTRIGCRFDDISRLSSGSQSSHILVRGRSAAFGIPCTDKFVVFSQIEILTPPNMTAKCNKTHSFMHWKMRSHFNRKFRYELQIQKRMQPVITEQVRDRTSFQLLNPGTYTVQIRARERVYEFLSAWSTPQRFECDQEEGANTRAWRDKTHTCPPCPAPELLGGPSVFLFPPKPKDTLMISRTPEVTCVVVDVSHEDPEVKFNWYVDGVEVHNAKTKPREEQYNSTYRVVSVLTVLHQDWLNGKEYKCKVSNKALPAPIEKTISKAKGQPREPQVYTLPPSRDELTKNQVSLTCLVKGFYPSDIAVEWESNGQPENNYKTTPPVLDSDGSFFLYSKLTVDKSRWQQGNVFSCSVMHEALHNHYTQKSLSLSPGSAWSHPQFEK

[3] = molecular target: T3, human CD123 (IL3RA) on cells (human, UniProt P26951 19-378); assay: cell-based or functional assay
T3 sequence (P26951 19-378): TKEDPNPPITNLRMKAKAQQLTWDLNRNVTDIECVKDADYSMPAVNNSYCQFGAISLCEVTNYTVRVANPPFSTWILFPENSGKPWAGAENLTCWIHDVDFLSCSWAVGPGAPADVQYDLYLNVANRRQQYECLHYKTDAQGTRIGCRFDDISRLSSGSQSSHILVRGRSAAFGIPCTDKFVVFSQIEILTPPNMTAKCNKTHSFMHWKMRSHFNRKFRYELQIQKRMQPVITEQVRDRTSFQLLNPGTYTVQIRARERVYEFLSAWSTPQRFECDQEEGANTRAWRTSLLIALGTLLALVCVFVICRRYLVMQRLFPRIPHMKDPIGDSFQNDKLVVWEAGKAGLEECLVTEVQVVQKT

[4] = molecular target: T1, human CD3ε/δ-Fc fusion protein (soluble …); assay: SPR Biacore; remark: listed apart in the source
[5] = molecular target: T2, human CD123 Strep-II tagged Fc-fusion …; assay: SPR Biacore; remark: listed apart in the source
[6] = molecular target: T4, human CD3 (TCR complex) on primary human T cells or Jurkat cells (human, UniProt P07766 23-207); assay: cell-based or functional assay
T4 sequence (P07766 23-207, one chain of several): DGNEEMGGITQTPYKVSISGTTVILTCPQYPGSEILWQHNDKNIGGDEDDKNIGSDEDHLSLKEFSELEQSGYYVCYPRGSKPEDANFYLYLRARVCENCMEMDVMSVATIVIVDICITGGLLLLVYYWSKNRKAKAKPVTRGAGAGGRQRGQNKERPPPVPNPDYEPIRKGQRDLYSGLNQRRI

[7] = molecular target: T3, human CD123 (IL3RA) on cells; assay: cell-based or functional assay; remark: listed apart in the source
[8] = molecular target: T4, human CD3 (TCR complex) on primary …; assay: cell-based or functional assay; remark: listed apart in the source
[9] = molecular target: T1, human CD3ε/δ-Fc fusion protein (soluble …); assay: SPR Biacore, CODV-Fab
Protocol: (§1) Binding affinities of anti-CD3 binding Fabs or CODV-Fabs were measured by surface plasmon resonance (SPR) using a Biacore3000 instrument (GE Healthcare). Assay buffer was HBS-EP (BR-1001-88, GE Healthcare). Capture of CD3ε/δ-Fc fusion proteins was achieved using the human antibody capture kit (GE Healthcare). […] The CD3εδ-Fc fusions proteins were captured at 10 μl/min to approx. 70 RU to yield Rmax values of 30 RU. Binding kinetics with the anti-CD3 Fabs or CODV-Fabs was measured at 30 μl/min for 240 sec. and 600 sec. for association and dissociation phase, respectively. Twofold dilutions of Fabs from 3 to 400 nM in assay buffer were used. All Fab concentrations were run in duplicate together with duplicate buffer blanks for double referencing. Regeneration of the capture surface was performed with a 1 min injection of 3M MgCl2 solution at 30 μl/min. For data analysis the BIAevaluation software v.4.1 (GE Healthcare) was used. Data were fit globally using a 1:1 Langmuir model with mass transfer.

[10] = molecular target: T3, human CD123 (IL3RA) on cells; assay: cell-based or functional assay; remark: listed apart in the source
[11] = molecular target: T1, human CD3ε/δ-Fc fusion protein (soluble …); assay: SPR Biacore, CODV-Fab on recombinant CD3ε/δ
Protocol: as §1

T1 sequence (chain, as listed by the source mutant, chain 1 of 2): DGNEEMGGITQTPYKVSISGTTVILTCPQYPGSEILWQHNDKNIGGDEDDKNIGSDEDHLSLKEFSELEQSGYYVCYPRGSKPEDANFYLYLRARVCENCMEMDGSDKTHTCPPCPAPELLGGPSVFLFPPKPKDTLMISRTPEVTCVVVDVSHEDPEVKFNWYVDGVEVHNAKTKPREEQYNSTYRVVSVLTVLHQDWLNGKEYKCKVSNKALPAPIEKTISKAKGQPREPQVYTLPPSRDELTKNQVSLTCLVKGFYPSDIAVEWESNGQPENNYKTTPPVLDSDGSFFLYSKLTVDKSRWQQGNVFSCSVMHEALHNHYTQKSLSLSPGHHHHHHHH
T1 sequence (P04234 22-105, stated change not applied, chain 2 of 2): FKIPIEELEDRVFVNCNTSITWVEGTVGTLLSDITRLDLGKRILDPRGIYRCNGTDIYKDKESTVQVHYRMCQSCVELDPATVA

B1: CODV-Fab hz20G6x7G3 antibody-like binding protein (bispecific antibody)
light: DFVMTQSPSSLTVTAGEKVTMSCKSSQSLLNSGNQKNYLTWYLQKPGQPPKLLIYWASTRESGVPDRFTGSGSGTDFTLTISSVQAEDLAVYYCQNDYSYPYTFGGGTKLEIKGQPKAAPDIVMTQTPLSLSVTPGQPASISCKSSQSLVHNNGNTYLSWYLQKPGQSPQSLIYKVSNRFSGVPDRFSGSGSGTDFTLKISRVEAEDVGVYYCGQGTQYPFTFGSGTKVEIKTKGPSRTVAAPSVFIFPPSDEQLKSGTASVVCLLNNFYPREAKVQWKVDNALQSGNSQESVTEQDSKDSTYSLSSTLTLSKADYEKHKVYACEVTHQGLSSPVTKSFNRGEC
heavy: QVQLVESGGGVVQPGRSLRLSCAASGFTFTKAWMHWVRQAPGKQLEWVAQIKDKSNSYATYYADSVKGRFTISRDDSKNTLYLQMNSLRAEDTAVYYCRGVYYALSPFDYWGQGTLVTVSSSEVQLQQSGPELVKPGASVKMSCKASGYTFTDYYMKWVKQSHGKSLEWIGDIIPSNGATFYNQKFKGKATLTVDRSSSTAYMHLNSLTSEDSAVYYCTRSHLLRASWFAYWGQGTLVTVSARTASTKGPSVFPLAPSSKSTSGGTAALGCLVKDYFPEPVTVSWNSGALTSGVHTFPAVLQSSGLYSLSSVVTVPSSSLGTQTYICNVNHKPSNTKVDKKVEPKSCDKTHTHHHHHH
notes: also called hz20G6 × 7G3 CODV-Fab
- Kd [1]: 5 nM
- Kd [2]: 0.6 nM
- Cytotoxic assay (THP cells) EC50 [pM] [3]: 30.9 pM

B2: CODV-Fab 7G3xhz4B4 antibody-like binding protein (bispecific antibody)
light: DVVMTQTPVSLSVSVGGRVSISCRSSQSLVHDNGNTYLSWSLQKPGKSPKVLIYKVSNRFSGVSSRFTGSGSGTDFTLKISSVQPDDLGVYYCGQGTQYPFTFGSGTKLEIKGQPKAAPDFVMTQSPSSLTVTAGEKVTMSCKSSQSLLNSGNQKNYLTWYLQKPGQPPKLLIYWASTRESGVPDRFTGSGSGTDFTLTISSVQAEDLAVYYCQNDYSYPYTFGGGTKLEIKTKGPSRTVAAPSVFIFPPSDEQLKSGTASVVCLLNNFYPREAKVQWKVDNALQSGNSQESVTEQDSKDSTYSLSSTLTLSKADYEKHKVYACEVTHQGLSSPVTKSFNRGEC
heavy: EVQLQQSGPELVKPGASVKMSCKASGYTFTDYYMKWVKQSHGKSLEWIGDIIPSNGATFYNQKFKGKATLTVDRSSSTAYMHLNSLTSEDSAVYYCTRSHLLRASWFAYWGQGTLVTVSASQVQLVETGGGLVKPGQSLKLTCATSGFTFSNAWMHWVRQSPEKGLEWVAQIKARSNNYATYYAESVKGRFTISRDDSKSTIYLQMNSLTPEDTAIYYCRGTYYASKPFDYWGQGVMVTVSSRTASTKGPSVFPLAPSSKSTSGGTAALGCLVKDYFPEPVTVSWNSGALTSGVHTFPAVLQSSGLYSLSSVVTVPSSSLGTQTYICNVNHKPSNTKVDKKVEPKSCDKTHTHHHHHH
notes: also called 7G3 × hz4B4 CODV-Fab
- Kd [1]: 5.4 nM
- Kd [2]: 0.1 nM
- Cytotoxic assay (THP cells) EC50 [pM] [3]: 26.7 pM

B3: CODV-Fab hz20G6xhz7G3 antibody-like binding protein (bispecific antibody)
light: DIVMTQSPDSLAVSLGERATINCESSQSLLNSGNQKNYLTWYQQKPGQPPKPLIYWASTRESGVPDRFSGSGSGTDFTLTISSLQAEDVAVYYCQNDYSYPYTFGQGTKLEIKGGSGSSGSGGDIVMTQTPLSLSVTPGQPASISCKSSQSLVHNNANTYLSWYLQKPGQSPQSLIYKVSNRFSGVPDRFSGSGSGTDFTLKISRVEAEDVGVYYCGQGTQYPFTFGSGTKVEIKGGSGSSGSGGRTVAAPSVFIFPPSDEQLKSGTASVVCLLNNFYPREAKVQWKVDNALQSGNSQESVTEQDSKDSTYSLSSTLTLSKADYEKHKVYACEVTHQGLSSPVTKSFNRGEC
heavy: QVQLVESGGGVVQPGRSLRLSCAASGFTFTKAWMHWVRQAPGKQLEWVAQIKDKSNSYATYYADSVKGRFTISRDDSKNTLYLQMNSLRAEDTAVYYCRGVYYALSPFDYWGQGTLVTVSSEVQLVQSGAEVKKPGESLKISCKGSGYSFTDYYMKWARQMPGKGLEWMGDIIPSSGATFYNQKFKGQVTISADKSISTTYLQWSSLKASDTAMYYCARSHLLRASWFAYWGQGTMVTVSSASTKGPSVFPLAPSSKSTSGGTAALGCLVKDYFPEPVTVSWNSGALTSGVHTFPAVLQSSGLYSLSSVVTVPSSSLGTQTYICNVNHKPSNTKVDKKVEPKSCDKTHTHHHHHH
notes: also called hz20G6xhz7G3 CODV-Fab
- Kd [4]: 9 nM
- Kd [5]: 0.2 nM
- T cell activation with THP-1 target cells, CD4+ T cells (% CD69+ cells) EC50 (pM) [6]: 1.4 pM
- T cell activation with THP-1 target cells, CD8+ T cells (% CD69+ cells) EC50 (pM) [6]: 3.1 pM
- Cytotoxic assay (THP cells) EC50 [pM] [7]: 2.1 pM
- Jurkat-NFAT-Luc reporter, no target cells, activation at Cmax in relation to max. activation in assay with target cells (%) [8]: 0.2%
- Jurkat-NFAT-Luc reporter, with THP1 cells, EC50 (pM) [8]: 561 pM

B4: CODV-Fab-TL1 hz20G6xhz7G3 antibody-like binding protein (bispecific antibody, human IgG1, kappa, L234A L235A)
light: DIVMTQSPDSLAVSLGERATINCESSQSLLNSGNQKNYLTWYQQKPGQPPKPLIYWASTRESGVPDRFSGSGSGTDFTLTISSLQAEDVAVYYCQNDYSYPYTFGQGTKLEIKGGSGSSGSGGDIVMTQTPLSLSVTPGQPASISCKSSQSLVHNNANTYLSWYLQKPGQSPQSLIYKVSNRFSGVPDRFSGSGSGTDFTLKISRVEAEDVGVYYCGQGTQYPFTFGSGTKVEIKGGSGSSGSGGRTVAAPSVFIFPPSDEQLKSGTASVVCLLNNFYPREAKVQWKVDNALQSGNSQESVTEQDSKDSTYSLSSTLTLSKADYEKHKVYACEVTHQGLSSPVTKSFNRGECDKTHTCPPCPAPEAAGGPSVFLFPPKPKDTLMISRTPEVTCVVVDVSHEDPEVKFNWYVDGVEVHNAKTKPREEQYNSTYRVVSVLTVLHQDWLNGKEYKCKVSNKALPAPIEKTISKAKGQPREPQVYTLPPSRDELTKNQVSLTCLVKGFYPSDIAVEWESNGQPENNYKTTPPVLDSDGSFFLYSKLTVDKSRWQQGNVFSCSVMHEALHNRFTQKSLSLSPG
heavy: not shown
notes: one chain of formula IV and one of formula III, IgG1 backbone; also called hz20G6xhz7G3 CODV-Fab-TL1
- Kd [4]: 11 nM
- Kd [5]: 0.2 nM
- T cell activation with THP-1 target cells, CD4+ T cells (% CD69+ cells) EC50 (pM) [6]: 3.2 pM
- T cell activation with THP-1 target cells, CD8+ T cells (% CD69+ cells) EC50 (pM) [6]: 9.9 pM
- Cytotoxic assay (THP cells) EC50 [pM] [7]: 1 pM
- Jurkat-NFAT-Luc reporter, no target cells, activation at Cmax in relation to max. activation in assay with target cells (%) [8]: 0.4%
- Jurkat-NFAT-Luc reporter, with THP1 cells, EC50 (pM) [8]: 444 pM

B5: CODV-Fab 7G3x20G6 antibody-like binding protein (bispecific antibody)
light: DVVMTQTPVSLSVSLGGQVSISCRSSQSLVHNNGNTYLSWYLQKPGQSPQSLIYKVSNRFSGFSDRFSGSGSGTDFTLKISRVDPDDLGVYYCGQGTQYPFTFGSGTKLEIKGQPKAAPDFVMTQSPSSLTVTAGEKVTMSCKSSQSLLNSGNQKNYLTWYLQKPGQPPKLLIYWASTRESGVPDRFTGSGSGTDFTLTISSVQAEDLAVYYCQNDYSYPYTFGGGTKLEIKTKGPSRTVAAPSVFIFPPSDEQLKSGTASVVCLLNNFYPREAKVQWKVDNALQSGNSQESVTEQDSKDSTYSLSSTLTLSKADYEKHKVYACEVTHQGLSSPVTKSFNRGEC
heavy: EVQLQQSGPELVKPGASVKMSCKASGYTFTDYYMKWVKQSHGKSLEWIGDIIPSNGATFYNQKFKGKATLTVDRSSSTAYMHLNSLTSEDSAVYYCTRSHLLRASWFAYWGQGTLVTVSASEVQLVETGGSLVQPGKSLKLTCATSGFTFTKAWMHWVRQSPEKQLEWVAQIKDKSNSYATYYAESVKGRFTISRDDSKSTIYLQMNSLKEEDTAIYYCRGVYYALSPFDYWGQGVMVTVSSRTASTKGPSVFPLAPSSKSTSGGTAALGCLVKDYFPEPVTVSWNSGALTSGVHTFPAVLQSSGLYSLSSVVTVPSSSLGTQTYICNVNHKPSNTKVDKKVEPKSCDKTHTHHHHHH
notes: formula I and formula II chains; hinge and His-tag added C-terminally to formula II; also called 7G3 × 20G6
- Kd [9]: 7 nM
- koff [9]: 0.00051 s⁻¹
- kon [9]: 72000 M⁻¹ s⁻¹
- Activity EC50 [ng/ml], cytotoxic assay on THP-1 with human T cells [10]: 18 ng/mL
- Kd [11]: 26.3 nM
- koff [11]: 0.000571 s⁻¹
- kon [11]: 21700 M⁻¹ s⁻¹

B6: CODV-Fab-OL1 hz20G6xhz7G3 antibody-like binding protein (bispecific antibody, human IgG1, kappa, L234A L235A)
light: B3 light
heavy: not shown
chain: GSDKTHTCPPCPAPEAAGGPSVFLFPPKPKDTLMISRTPEVTCVVVDVSHEDPEVKFNWYVDGVEVHNAKTKPREEQYNSTYRVVSVLTVLHQDWLNGKEYKCKVSNKALPAPIEKTISKAKGQPREPQVCTLPPSRDELTKNQVSLSCAVKGFYPSDIAVEWESNGQPENNYKTTPPVLDSDGSFFLVSKLTVDKSRWQQGNVFSCSVMHEALHNHYTQKSLSLSPG
notes: formula I chain, formula III chain and Fc stump (Fc3); also called hz20G6xhz7G3 CODV-Fab-OL1; hz20G6xhz7G3 CODV-OL1
- Kd [4]: 15 nM
- T cell activation with THP-1 target cells, CD4+ T cells (% CD69+ cells) EC50 (pM) [6]: 1 pM
- T cell activation with THP-1 target cells, CD8+ T cells (% CD69+ cells) EC50 (pM) [6]: 3.3 pM
- Jurkat-NFAT-Luc reporter, no target cells, activation at Cmax in relation to max. activation in assay with target cells (%) [8]: 0.4%
- Jurkat-NFAT-Luc reporter, with THP1 cells, EC50 (pM) [8]: 320 pM

B7: CODV-Fab 7G3x4B4 antibody-like binding protein (bispecific antibody)
light: B5 light with N32D, Y41S, K44R, S51V, F63T, S68T, D84E
heavy: B2 heavy with Q122E, G131R, K134Q, Q137R, G165Q, T210K, P211E
notes: also called 7G3 × 4B4
- Kd [9]: 17 nM
- koff [9]: 0.0044 s⁻¹
- kon [9]: 270000 M⁻¹ s⁻¹
- Activity EC50 [ng/ml], cytotoxic assay on THP-1 with human T cells [10]: 11 ng/mL

— patent US20210292423A1 (published 2021)
